One may read the EC50 as the concentration giving half of the maximal effect. Read a low EC50 as higher potency in that assay.

The target in the assay is T1, Axl-Fc (R&D Systems) (UniProt P30530-2 26-440, limits assumed).
T1 construct: Bought reagent (R&D Systems, Minneapolis); also called Axl-Fc receptor; not shown: Fc part of the bought fusion
T1 sequence (looked up): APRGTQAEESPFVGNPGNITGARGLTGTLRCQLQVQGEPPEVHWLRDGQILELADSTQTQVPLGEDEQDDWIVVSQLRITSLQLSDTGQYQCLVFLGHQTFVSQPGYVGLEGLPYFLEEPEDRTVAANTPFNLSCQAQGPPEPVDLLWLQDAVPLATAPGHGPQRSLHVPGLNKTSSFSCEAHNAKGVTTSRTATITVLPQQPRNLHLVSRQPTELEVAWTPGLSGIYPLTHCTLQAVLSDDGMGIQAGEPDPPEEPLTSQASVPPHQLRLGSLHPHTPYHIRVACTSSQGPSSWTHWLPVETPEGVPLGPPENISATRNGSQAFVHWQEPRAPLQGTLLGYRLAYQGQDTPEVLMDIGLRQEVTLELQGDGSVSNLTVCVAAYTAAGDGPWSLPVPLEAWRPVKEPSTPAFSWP
Put plainly: EIA: plate coated with Axl-Fc, Gas6_Flag detected with HRP anti-Flag M2 antibody, OD490.

B1: human Gas6_Flag (human Growth Arrest Specific Gene 6 protein with a Flag epitope tag at the C-terminus) (ligand)
chain: ALLPAREATQFLRPRQRRAFQVFEEAKQGHLERECVEELCSREEAREVFENDPETDYFYPRYLDCINKYGSPYTKNSGFATCVQNLPDQCTPNPCDRKGTQACQDLMGNFFCLCKAGWGGRLCDKDVNECSQENGGCLQICHNKPGSFHCSCHSGFELSSDGRTCQDIDECADSEACGEARCKNLPGSYSCLCDEGFAYSSQEKACRDVDECLQGRCEQVCVNSPGSYTCHCDGRGGLKLSQDMDTCEDILPCVPFSVAKSVKSLYLGRMFSGTPVIRLRFKRLQPTRLVAEFDFRTFDPEGILLFAGGHQDSTWIVLALRAGRLELQLRYNGVGRVTSSGPVINHGMWQTISVEELARNLVIKVNRDAVMKIAVAGDLFQPERGLYHLNLTVGGIPFHEKDLVQPINPRLDGCMRSWNWLNGEDTTIQETVKVNTRMQCFSVTERGSFYPGSGFAFYSLDYMRTPLDVGTESTWEVEVVAHIRPAADTGVLFALWAPDLRAVPLSVALVDYHSTKKLKKQLVVLAVEHTALALMEIKVCDGQEHVVTVSLRDGEATLEVDGTRGQSEVSAAQLQERLAVLERHLRSPVLTFAGGLPDVPVTSAPVTAFYRGCMTLEVNRRLLDLDEAAYKHSDITAHSCPPVEPAAADYKDDDDK
notes: Expressed from full-length cDNA in HEK293 cells grown with vitamin K1 and purified on anti-Flag M2 resin; 2'; also called Gas6_tag
Regarding B1, the EC50 is roughly 0.02 mg/L.

The values above are taken from patent US20040157774A1 (published 2004).
